Test results reported in patent publication US20240150451A1 (Janssen / Centocor, published 2024).
Positions count from the first letter of the chain named.

T1: Tau peptide Start 415 Stop 434
T1 peptide: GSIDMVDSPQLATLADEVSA

T2: Tau peptide Start 417 Stop 436
T2 peptide: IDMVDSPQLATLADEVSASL

T3: Tau peptide Start 419 Stop 438
T3 peptide: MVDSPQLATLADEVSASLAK

T4: Tau peptide Start 421 Stop 440
T4 peptide: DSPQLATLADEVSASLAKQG

T5: Tau peptide Start 422 Stop 441
T5 peptide: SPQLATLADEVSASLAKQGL

T6: Tau peptide Start 3 Stop 22 (Synthetic linear peptide immobilised on a Pepscan array; the attachment to the array cannot be carried by the letters.)
T6 peptide: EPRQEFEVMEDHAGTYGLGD

T7: Tau peptide Start 411 Stop 430
T7 peptide: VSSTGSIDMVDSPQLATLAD

T8: Tau peptide Start 413 Stop 432
T8 peptide: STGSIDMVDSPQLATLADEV

B1: PT53 monoclonal antibody (recombinant, mouse IgG2a/kappa) (antibody, V domains shown)
VH: EVKLMESGGGLVQPGASLRLSCAASGFTFTDYYMSWVRQPPGKAPEWLALIRNKANGYTTKYAASVKGRFTISRDNSQNILYLQMNTLRAEDSATYYCVKAVWFAYWGQGTLVTVSA
VL: DIVITQDELSNPVTSGESVSISCRSSKSLLYKDGKTYLNWFLQRPGQSPQLLIYLMSTRASGVSDRFSGSGSGTDFTLEISRVKAEDVGVYYCLQLVEYPYTFGGGTKLEIKR
notes: also called PT50/PT53
B2: PT81 monoclonal antibody (recombinant, mouse IgG2a/kappa) (antibody, V domains shown)
VH: QVQLQQPGAELVRPGASVILSCKASGYTFTNSWIHWVKQRPGRVLEWIGRIDPNSGGTRYNENFKSKATLTVDKPSSTAYMQLSSLTSEDSAVYFCSRGVLHDYWGQGTTLTVSS
VL: B1 VL with G69V, K84Q, L94Q

Legend:
[1] = biological target: T9, recombinant full-length tau 2N4R (control tau) (human, UniProt P10636 2-758); assay: direct ELISA, 10 ng/well coated control tau, hybridoma screening
T9 construct: also called recombinant WT (2N4R) tau; Rec; Tau
Description: Obtained hybridomas were seeded in 96-well plates and screened after 10 days in a direct ELISA on 25 ng/well coated PHF-tau as described below. Positive cells were tested for cross-reactivity on 10 ng/well coated with control tau (SEQ ID NO: 51) expressed in E. Coli BL21 cells and purified by heat treatment and ammonium sulphate precipitation. […] PT/66, PT/69 and hTau/60 were prioritized for V-region cloning and humanization.

[2] = biological target: T1, Tau peptide Start 415 Stop 434; assay: Pepscan ELISA on an array of linear 20-mer Tau 441 peptides; parameters: peptide ELISA signal (no name or unit printed): unit not given here
Description: (§1) An amino functionalized polypropylene support was obtained by grafting with a proprietary hydrophilic polymer formulation, followed by reaction with t-butyloxycarbonyl-hexamethylenediamine (BocHMDA) using dicyclohexylcarbodiimide (DCC) with N-hydroxybenzotriazole (HOBt), and subsequent cleavage of the Boc-groups using trifluoroacetic acid (TFA). Standard Fmoc-peptide synthesis was used to synthesize peptides on the amino-functionalized solid support by custom modified JANUS liquid handling stations (Perkin Elmer). Synthesis of structural mimics was done using Pepscan's proprietary Chemically Linked Peptides on Scaffolds (CLIPS) technology. CLIPS technology allows to structure peptides into single loops, double loops, triple loops, sheet-like folds, helix-like folds, and combinations thereof. CLIPS templates are coupled to cysteine residues. The side-chains of multiple cysteines in the peptides are coupled to one or two CLIPS templates. For example, a 0.5 mM solution of the P2 CLIPS (2,6-bis(bromomethyl)pyridine) is dissolved in ammonium bicarbonate (20 mM, pH 7.8)/acetonitrile (1:3 (v/v)). This solution is added onto the peptide arrays. The CLIPS template will bind to side-chains of two cysteines as present in the solid-phase bound peptides of the peptide-arrays (455 wells plate with 3 μl wells). The peptide arrays are gently shaken in the solution for 30 to 60 minutes while completely covered in solution. Finally, the peptide arrays are washed extensively with excess of H₂O and sonicated in disrupt-buffer containing 1% SDS/0.1% beta-mercaptoethanol in PBS (pH 7.2) at 70° C. for 30 minutes, followed by sonication in H₂O for another 45 minutes. The T3 CLIPS carrying peptides were made in a similar way but now with three cysteines.
(§2) The binding of antibodies (recombinantly expressed as IgG2a) to each of the synthesized peptides was tested in a pepscan-based ELISA. The peptide arrays were incubated with primary antibody solution (overnight at 4° C.). After washing, the peptide arrays were incubated with a 1/1000 dilution of an appropriate antibody peroxidase conjugate (SBA; Table 4) for one hour at 25° C. After washing, the peroxidase substrate 2,2′-azino-di-3-ethylbenzthiazoline sulfonate (ABTS) and 20 μl/ml of 3 percent H₂O₂ were added. After one hour, the color development was measured.

[3] = biological target: T2, Tau peptide Start 417 Stop 436; assay: as above; parameters: peptide ELISA signal (no name or unit printed): unit not given here
Description: as §1, §2

[4] = biological target: T3, Tau peptide Start 419 Stop 438; assay: as above; parameters: peptide ELISA signal (no name or unit printed): unit not given here
Description: as §1, §2

[5] = biological target: T4, Tau peptide Start 421 Stop 440; assay: as above; parameters: peptide ELISA signal (no name or unit printed): unit not given here
Description: as §1, §2

[6] = biological target: T5, Tau peptide Start 422 Stop 441; assay: as above; parameters: peptide ELISA signal (no name or unit printed): unit not given here
Description: as §1, §2

[7] = biological target: Tau peptide Start 1 Stop 20 (Synthetic linear peptide immobilised on a Pepscan array; the attachment to the array cannot be carried by the letters.); assay: as above; parameters: peptide ELISA signal (no name or unit printed): unit not given here
Chain of Tau peptide Start 1 Stop 20 (Synthetic linear peptide immobilised on a Pepscan array; the attachment to the array cannot be carried by the letters.) (peptide, as listed by the source limits assumed): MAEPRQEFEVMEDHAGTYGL
Description: as §1, §2

[8] = biological target: T6, Tau peptide Start 3 Stop 22; assay: as above; parameters: peptide ELISA signal (no name or unit printed): unit not given here
Description: as §1, §2

[9] = biological target: T7, Tau peptide Start 411 Stop 430; assay: as above; parameters: peptide ELISA signal (no name or unit printed): unit not given here
Description: as §1, §2

[10] = biological target: T8, Tau peptide Start 413 Stop 432; assay: as above; parameters: peptide ELISA signal (no name or unit printed): unit not given here
Description: as §1, §2

Binder	binding result [1]	binding result [2]	peptide ELISA signal (no name or unit printed) [2]	peptide ELISA signal (no name or unit printed) [3]	peptide ELISA signal (no name or unit printed) [4]	peptide ELISA signal (no name or unit printed) [5]	peptide ELISA signal (no name or unit printed) [6]	peptide ELISA signal (no name or unit printed) [7]	peptide ELISA signal (no name or unit printed) [8]	peptide ELISA signal (no name or unit printed) [9]	binding result [10]	peptide ELISA signal (no name or unit printed) [10]
B1	binds	no binding	40	637	2090	2880	2930	38	44	29	no binding	38
B2	binds	no binding	78	2800	2900	2900	2920	43	45	31	no binding	30
